# Experimental data: article PMC9040794, “The Plant Defense Signal Salicylic Acid Activates the RpfB-Dependent Quorum Sensing Signal Turnover via Altering the Culture and Cytoplasmic pH in the Phytopathogen Xanthomonas campestris” (mBio, 2022)
# Tested on: CC(C)CCCCCCC/C=C\C(=O)O
# Assay: purified protein
# Settings: pH 7.0 phosphate (standard of pH 6, 7, 8 tested); co-substrates 5 mM ATP, 0.5 mM CoA; 10 mM MgCl2, 2 mM EDTA, 0.1% Triton X-100; 37°C in b48 (28°C elsewhere in the source)
substance,measurement,value
RpfB (Xanthomonas campestris pv. campestris str. ATCC 33913),Km,6.5 µM
